Data as given in the Human Domainome abundance scans (Beltran et al. 2025).

B1: Tyrosine-protein kinase Lck, residues 63 to 120; numbered along this chain, P06239 (parent)
chain: DNLVIALHSYEPSHDGDLGFEKGEQLRILEQSGEWWKAQSLTTGQEGFIPFNFVAKAN

Variants of: B1
Assay: abundance fitness (aPCA) (normalised: wild type 0, dead -1); higher = more abundant; growth selection in yeast, the domain comes from the species named
Settings: Homo sapiens

Abundance fitness, by site and new letter:
A57: S -0.098, G -0.076, T 0.008, I -0.003, F -0.394, H -0.057, R -0.093, W -0.132, C -0.244, K -0.18, M -0.195, Q -0.112, V -0.023, P -0.046, N -0.614
F48: E -0.286, R 0.011, H -0.172, P -0.52, M -0.063, T -0.115, G -0.576, A -0.235, Q -0.274, L 0.019, D -0.559, K 0.115, W 0.075, I -0.264, V -0.096, S -0.308
Q45: N -0.288, W -0.599, C -0.117, I -0.662, S -0.282, L -0.112, R -0.015, G -0.308, T -0.146, K -0.101, P -0.57, A -0.087, D -0.217, M -0.092, H -0.23, F -0.303, V -0.187, E 0.001
F53: E -0.488, L -0.028, H -0.162, C -0.157, P -0.842, T -0.214, K -0.37, N -0.527, Q -0.293, S 0.032, A -0.013, I -0.156, V -0.268, G -0.423, R -0.196, W -0.107, M -0.143
A55: H -0.27, L -0.4, I -0.084, T -0.013, V -0.021, K -0.154, M -0.12, E 0.037, D -0.102, N -0.231, W -0.515, F -0.369, G -0.007, Y -0.261, R -0.019, C -0.141, P -0.835, Q 0.04
